Data published in patent US20130189283A1.
Where no end group is shown, it is not given here.

Target: Kv1.3 voltage-gated potassium channel on T cells in human whole blood (human) (UniProt P22001)
Assay: cell-based or functional assay

Kv1.3 voltage-gated potassium channel on T cells in human whole blood (human), sequence (P22001 whole entry): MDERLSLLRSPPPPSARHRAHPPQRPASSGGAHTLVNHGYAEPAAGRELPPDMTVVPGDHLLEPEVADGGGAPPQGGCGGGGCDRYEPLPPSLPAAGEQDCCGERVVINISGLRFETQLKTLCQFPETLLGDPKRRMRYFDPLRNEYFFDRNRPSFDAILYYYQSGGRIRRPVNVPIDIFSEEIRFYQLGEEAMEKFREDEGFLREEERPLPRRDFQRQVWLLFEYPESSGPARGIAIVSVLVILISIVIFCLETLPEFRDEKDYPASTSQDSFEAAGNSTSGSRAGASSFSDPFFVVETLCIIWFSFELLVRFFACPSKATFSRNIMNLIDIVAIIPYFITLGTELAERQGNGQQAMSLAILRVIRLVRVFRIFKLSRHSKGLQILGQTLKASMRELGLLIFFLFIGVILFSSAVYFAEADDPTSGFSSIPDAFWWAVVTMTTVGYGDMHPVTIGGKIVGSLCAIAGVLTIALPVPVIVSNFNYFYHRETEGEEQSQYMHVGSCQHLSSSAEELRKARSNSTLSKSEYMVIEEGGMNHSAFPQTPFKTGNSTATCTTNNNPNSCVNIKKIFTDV

Row | Binder | Potency Relative to ShK (WB, IL2) | WB (IFNg) IC50 | WB (IL-2) IC50
1 | GGGGSGGGGSSCIDTIPKSRCTAFQCKHSMKYRLSFCRKTCGTC (Fc fusion, not fully specified (N-terminus); ends and bridges not checked; also: homodimer via Fc) [Bivalent Fc-L10-ShK[2-35] homodimer] | 8.73 fold | 2280 pM | 585 pM
2 | GGGGSGGGGSRSCIDTIPKSRCTAFQCKHSMKYRLSFCRKTCGTC (Fc fusion, not fully specified (N-terminus); ends and bridges not checked; also: homodimer via Fc) [Bivalent Fc-L10-ShK[1-35] homodimer] | 5.76 fold | 320 pM | 386 pM
